Reference: paper PMC11807975, “The secreted host-cell protein clusterin interacts with PmpD and promotes Chlamydia trachomatis infection” (Frontiers in Cellular and Infection Microbiology, 2024)
Several values for one entry are separate records, joined by “and”; a condition that tells them apart may be missing. Identical values can stand only once.

Target: the molecule itself
Assay: native gel or EMSA; Blue Native-PAGE (Native PAGE Novex 3-12% Bis-Tris) of the SEC elution fraction of rD72 at 1.4 ml; Coomassie stain

B1: recombinant D72 (rD72), proteolytically processed fragment of Chlamydia trachomatis serovar E PmpD, residues 68-761, N-terminal 10x His-Tag (domain or fragment)
chain: DSQAEGQYRLIVGDPSSFQEKDADTLPGKVEQSTLFSVTNPVVFQGVDQQDQVSSQGLICSFTSSNLDSPRDGESFLGIAFVGDSSKAGITLTDVKASLSGAALYSTEDLIFEKIKGGLEFASCSSLEQGGACAAQSILIHDCQGLQVKHCTTAVNAEGSSANDHLGFGGGAFFVTGSLSGEKSLYMPAGDMVVANCDGAISFEGNSANFANGGAIAASGKVLFVANDKKTSFIENRALSGGAIAASSDIAFQNCAELVFKGNCAIGTEDKGSLGGGAISSLGTVLLQGNHGITCDKNESASQGGAIFGKNCQISDNEGPVVFRDSTACLGGGAIAAQEIVSIQNNQAGISFEGGKASFGGGIACGSFSSAGGASVLGTIDISKNLGAISFSRTLCTTSDLGQMEYQGGGALFGENISLSENAGVLTFKDNIVKTFASNGKILGGGAILATGKVEITNNSEGISFTGNARAPQALPTQEEFPLFSKKEGRPLSSGYSGGGAILGREVAILHNAAVVFEQNRLQCSEEEATLLGCCGGGAVHGMDSTSIVGNSSVRFGNNYAMGQGVSGGALLSKTVQLAGNGSVDFSRNIASLGGGALQASEGNCELVDNGYVLFRDNRGRVYGGAISCLRGDVVISGNKGRVEFKDNIATRLYVEETVEKVEEVEPAPEQKDNNELSFLGRAEQSFITAANQA
notes: In solution a high-molecular-weight oligomer (720-1048 kDa by Blue Native-PAGE, calculated 10- to 15-mer); also called rPmpD; His-PmpD; source: E. coli Origami, purified (Ni-NTA agarose, dialysed in PBS); not shown: 10xHis, N-terminal, kept; copies: 10-15
With B1 the “stoichiometry N” value was 10 and 15.
